To fix the notation:
B1: library; a variant is named by its letters at X, in order (parent)
chain: MNIQIGELAKRTACPVVTIRFYEQEGLLPPPGRSRGNFRLYGEEHVERLQFIRHCRSLDMPLSDVRTLLSYRKRPDQDCGEVXMLLDEHIRQVESRIGALLELKHHLVELREACSGARPAQSCGILQXLSXCVCXTRGTTAHXSD

± gives the standard deviation of the averaged measurements.

The variants in data set [1] derive from B1. The data set can be described thus: sfGFP reporter fluorescence (15 h) (µM FITC); higher = higher leak. The note with it: library round: Round 2; ligand: none. An outline of the steps: (§1)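 Values are endpoint sfGFP fluorescence given as µM FITC equivalents. Fluorescence was read at 485/528 nm on a Synergy Neo2, and FITC standard curves were prepared in 50 mM sodium borate pH 8.5. Reactions of 1 μL combined BL21 Star (DE3) PANOx-SP extract, pPbrR-sfGFP reporter, 30 μg/mL GamS and linear PbrR templates (PCR-made, Echo-normalized to 5 nM), with 1 µM lead chloride, 30 µM zinc acetate or no metal, for 15 hr at 30 °C.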

The variants in data set [2] derive from B1. As to the kind of experiment: sfGFP reporter fluorescence (15 h) (µM FITC); higher = stronger transcriptional activation. The note with it: library round: Round 2. Put shortly: as §1

MNIQIGELAKRTACPVVTIRFYEQEGLLPPPGRSRGNFRLYGEEHVERLQFIRHCRSLDMPLSDVRTLLSYRKRPDQDCGEVNMLLDEHIRQVESGIGALLELVHHLVELREACSGARPAQSCGILQMLSDCVCDTRGTTAHPSD [NMDDP R96G K104V]: the sfGFP reporter fluorescence in data set [1] turned out to be 0.0669 ± 0.0034; in data set [2] (ligand: 1 µM Pb), 0.0841 ± 0.003; in data set [2] (ligand: 30 µM Zn) it was 0.58 ± 0.055.

In the case of MNIQIGELAKRTACPVVTIRFYEQEGLLPPPGRSRGNFRLYGEEHVERLQFIRHCRSLDMPLSDVRTLLSYRKRPDQDCGEVNMLLDEHLRQVESRIGALLELKHHLVELREACSGARPAQSCGILQPLSDCVCATRGTTAHPSD [NPDAP I90L], the sfGFP reporter fluorescence in data set [1] came out at 0.0467 ± 0.0027; in data set [2] (ligand: 1 µM Pb), 0.04301 ± 0.00034; in data set [2] (ligand: 30 µM Zn), 0.0482 ± 0.0039.

Consider MNIQIGELAKRTACPVVTIRFYEQEGLLPPPGRSRGNFRLYGEEHVERLQFIRHCRSLDMNLSKVRTLLSYRKRPDQDCGEVNMLLDEHIRQVESRIGALLELKHHCVELREACSGARPAQSCGILQTLSDCVCDTRGTTAHPSD [NTDDP P61N D64K L107C], for which the sfGFP reporter fluorescence worked out at 2.26 ± 0.67 in data set [1], 2.58 ± 0.67 in data set [2] (ligand: 1 µM Pb) and 3.04 ± 0.32 in data set [2] (ligand: 30 µM Zn).

With MNIQIGELAKRTACPVVTIRFYEQEGLLPPPGRSRGNFRLYGEEHVERLQFIRHCRSLDLNLSDVRTLLSYRKRPDQDCGEVNMLLDEHIRQVESRIGALLELVHHCVELREACSGARPAQSCGILQMLSDCVCDTRGTTAHPSD [NMDDP M60L P61N K104V L107C], the sfGFP reporter fluorescence in data set [1] came to 0.759 ± 0.1; in data set [2] (ligand: 1 µM Pb), 1.83 ± 0.19; in data set [2] (ligand: 30 µM Zn), 3.54 ± 0.46.

For the variant MNIQIGELAKRTACPVVTIRFYEQEGLLPPPGRSRGNFRLYGEEHVERLQFIRHCRSLDLNLSKVRTLLSYRKRPDQDCGEVNMLLDEHIRQVESRIGALLELKHHLVELREACSGARPAQSCGILQTLSDCVCATRGTTAHPSD [NTDAP M60L P61N D64K], the sfGFP reporter fluorescence in data set [1] is 0.878 ± 0.074; in data set [2] (ligand: 1 µM Pb) it was 2.33 ± 0.17; in data set [2] (ligand: 30 µM Zn), 3.33 ± 0.36.

As for MNIQIGELAKRTACPVVTIRFYEQEGLLPPPGRSRGNFRLYGEEHVERLQFIRHCRSLDMPLSDVRTLLSYRKRPDQDCGEVNMLLDEHIRQVESRIGALLELKHHLVELREACSGARPAQSCGILQSLSECVCPTRGTTAHPSD [NSEPP], the sfGFP reporter fluorescence in data set [1] was 0.0629 ± 0.0028; in data set [2] (ligand: 1 µM Pb) it was 0.145 ± 0.014; in data set [2] (ligand: 30 µM Zn), 1.79 ± 0.34.

Regarding MNIQIGELAKRTACPVVTIRFYEQEGLLPPPGRSRGNFRLYGEEHVERLQFIRHCRSLDMPLSDVRTLLSYRKRPDQDCGEVNMLLDEHIRQVESRIGALLELKHHLVELREACSGARPAQSCGILQSLSACVCATRGTTAHPSD [NSAAP], the values for the sfGFP reporter fluorescence in data set [1], in data set [2] (ligand: 1 µM Pb) and in data set [2] (ligand: 30 µM Zn) were 0.0758 ± 0.0055, 0.162 ± 0.0077 and 1.67 ± 0.15, respectively.

Consider MNIQIGELAKRTACPVVTIRFYEQEGLLPPPGRSRGNFRLYGEEHVERLQFIRHCRSLDLPLSDVRTLLSYRKRPDQDCGEVNMLLDEHIRQVESRIGALLELKHHLVELREACSGARPAQSCGILQTLSCCVCDTRGTTAHPSD [NTCDP M60L], for which the sfGFP reporter fluorescence in data set [1] was 0.222 ± 0.016; in data set [2] (ligand: 1 µM Pb) it was 0.784 ± 0.021; in data set [2] (ligand: 30 µM Zn), 2.43 ± 0.27.

Consider MNIQIGELAKRTACPVVTIRFYEQEGLLPPPGRSRGNFRLYGEEHVERLQFIRHCRSLDMPLSDVRTLLSYRKRPDQDCGEVNMLLDEHIRQVESRIGALLELKHHCVELREACSGARPAQSCGILQTLSDCVCATRGTTAHPSD [NTDAP L107C], for which the sfGFP reporter fluorescence in data set [1] is 0.819 ± 0.064; in data set [2] (ligand: 1 µM Pb), 1.7 ± 0.12; in data set [2] (ligand: 30 µM Zn) it was 3.23 ± 0.041.

The values above are taken from the supplement of paper PMC12783771.
